US20260265373A1

Assays:
[1] = target: full-length human ILT7 on cells (human) (UniProt P59901); assay: competitive FACS on CHOK1 cells expressing human ILT7; competitor Tab1-Alexa488; negative control, reference of the calculation
[2] = target: full-length human ILT7 on cells (human) (UniProt P59901); assay: competitive FACS on CHOK1 cells expressing human ILT7; competitor Tab1-Alexa488; negative control that sets the reference signal
[3] = target: full-length human ILT7 on cells (human) (UniProt P59901); assay: flow cytometry of human PBMCs, gate on pDCs (CD11c low, HLA-DR+, CD123+)

full-length human ILT7 on cells (human), sequence (P59901 other isoform, or with tags, fused parts or gaps): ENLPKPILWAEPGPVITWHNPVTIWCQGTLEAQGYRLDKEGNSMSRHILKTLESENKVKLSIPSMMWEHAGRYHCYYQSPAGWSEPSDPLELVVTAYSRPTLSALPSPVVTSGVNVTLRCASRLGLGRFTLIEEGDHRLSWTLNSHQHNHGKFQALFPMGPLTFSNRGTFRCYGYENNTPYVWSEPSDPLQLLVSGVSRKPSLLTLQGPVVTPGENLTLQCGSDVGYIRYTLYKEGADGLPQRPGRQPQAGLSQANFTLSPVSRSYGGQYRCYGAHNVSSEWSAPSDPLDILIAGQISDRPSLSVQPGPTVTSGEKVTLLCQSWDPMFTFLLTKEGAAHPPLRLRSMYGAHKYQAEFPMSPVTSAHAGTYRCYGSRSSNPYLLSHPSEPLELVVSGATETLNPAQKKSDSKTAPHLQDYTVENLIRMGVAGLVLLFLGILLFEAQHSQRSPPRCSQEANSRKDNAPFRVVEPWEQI

- Inhibition (%) [1]: 0%
- MFI of Tab1-Alexa488 [2]: 9670
- % targeted cells in subpopulation (pDC) [3]: 2.2%
Substance: isotype antibody hIgG1 (negative control)
